Experimental data: patent US20040147437A1, “Calycins” (priority 2000, published 2004)

Tests used:
[1] = Ligand binding affinity of proteins for selected ligands (FIG. 5): retinoic acid; details: mutant relative to native ERABP; see FIG. 5
[2] = Ligand binding affinity of proteins for selected ligands (FIG. 5): retinol; details: see FIG. 5
[3] = Ligand binding affinity of proteins for selected ligands (FIG. 5): retinal; details: see FIG. 5

affinity for retinoic acid [1]: reduced affinity | binding of retinol [2]: bind | binding of retinal [3]: bind
B1: ERABP (Arg 80 and Glu63 to isoleucine): Epididymal Retinoic acid Binding Protein with Arg 80 and Glu63 mutated to isoleucine (protein, UniProt P06911 1-188, looked up, variant E63I R80I)
chain: MENIMPFALLGLCVGLAAGTEGAVVKDFDISKFLGFWYEIAFASKMGTPGLAHKEEKMGAMVVELKENLLALTTTYYSEDHCVLIKVTATEGDGPAKFQVTILSGKKEVVVEATDYLTYAIIDITSLVAGAVHRTMKLYSRSLDDNGEALYNFRKITSDHGFSETDLYILKHDLTCVKVLQSAAESRP
